Target: T1, gD-SRA-ID-GPI (construct e) (human, UniProt O14791 305-398, C-terminal GPI anchor)
T1 sequence: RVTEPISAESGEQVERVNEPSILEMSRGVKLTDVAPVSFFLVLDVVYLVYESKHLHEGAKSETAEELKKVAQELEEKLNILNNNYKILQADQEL
Assay: flow cytometry, live CHO cells expressing the construct, 5 µg/ml
Procedure: Stably transfected live (not fixed or permeabilized) CHO cells expressing the gD-iAPOL1-GPI constructs indicated in FIGS. 1A-1E after induction with 5 μg/ml dox for 48 h, showing differential antibody binding at 5 μg/ml. […] White histograms are Alexa488 anti-mouse or anti-rabbit secondaries only; grey histograms are the anti-APOL1 signals. A representative histogram for each category is shown: 3.7D6 for PFD; 3.3A8 for C-terminus of MAD, 3.5H9 for N-terminus of MAD; 3.1C1 for SRA-ID; 3.2D4 for multi-domain; 3.3F7 for conformational and 3.5B10 for FACS-negative (FACS-ve). The prefix 3 in the name of the antibodies denotes murine monoclonals from Method #3 (as shown in Example 1 below); other antibodies (not illustrated here) starting with the number 4 are murine monoclonals derived from mice additionally boosted with SRA-ID protein; and prefix 5-named antibodies are rabbit monoclonals from Method #5 (Table 2A; and Example 2). […] The Sigma polyclonal (HPA018885, raised to aa 263-387) and the Epitomics rabbit monoclonal (EPR2907(2), raised to an undisclosed peptide) are SRA-ID binders. […]
Cells were harvested with 5 mM EDTA in PBS, washed once with growth media and twice with PBS. […] Signals were read in a FACSCalibur3 (Becton Dickinson), with the exception of FIG. 8A and FIG. 14, which used a FACSCelesta, and data was analyzed using FlowJo v8.4.5.

- binding result: binds
B1: antibody 3.1C1 (antibody, V domains shown)
VH: QVQLQQSGPELVKPGASVRISCKASGYTFTNYFIHWVKQRPGQGLEWIGWINPGNLNTKYTEEFKGKATLTADKSSSTAYIQLNSLTSEDSAVYFCVNGNPFVYWGQGTLVTVSA
VL: DIVMTQSPSSLTVIAGEKVTLNCKSSQSLLNSGNQKKYLTWLQQKPGQPPKLLIYWTSTRDSGVPDRFTGSGSGTDFTLTISSVQAEDLAVYYCQNDYSYPLTFGAGTKLEIKR
notes: Mouse mAb, cloned as murine IgG2a LALAPG; not written separately; also called SRA-ID mAb 3.1C1
